These results are taken from patent US20240409624A1.

In assay [1] the target is 0N4 R tau V300 mutated to alanine (human) (UniProt P10636). The assay can be described thus: flow cytometry on fixed, permeabilised Expi293 cells expressing the mutant, 10 µg/ml VR7082. In general terms: In flow cytometry, cells or beads pass a laser one at a time.
Assay [2] deals with 0N4 R tau K298 mutated to alanine (human) (UniProt P10636). The assay is described as above.
Chain of 0N4 R tau K298 mutated to alanine (human) (P10636 other isoform, or with tags, fused parts or gaps, change not shown): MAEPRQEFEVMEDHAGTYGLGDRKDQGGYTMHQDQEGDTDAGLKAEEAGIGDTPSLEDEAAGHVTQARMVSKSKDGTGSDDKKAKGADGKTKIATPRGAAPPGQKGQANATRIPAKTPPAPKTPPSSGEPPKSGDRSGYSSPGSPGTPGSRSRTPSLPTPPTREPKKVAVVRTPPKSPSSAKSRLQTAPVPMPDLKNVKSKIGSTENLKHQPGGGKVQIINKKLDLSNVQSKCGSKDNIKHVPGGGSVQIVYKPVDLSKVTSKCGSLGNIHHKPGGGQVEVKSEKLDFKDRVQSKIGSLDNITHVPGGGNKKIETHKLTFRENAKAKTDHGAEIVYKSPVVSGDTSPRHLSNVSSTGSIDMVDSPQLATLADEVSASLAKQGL

Chain of 0N4 R tau V300 mutated to alanine (human) (P10636 other isoform, or with tags, fused parts or gaps, change not shown): as above

B1: VR7082 rabbit IgG (antibody, V domains shown)
VH: QSVEESGGRLVTPGTPLTLTCTVSGIDLSNYAMIWVRQAPGEGLEYIGIISSTGNTFYATWAKGRFTISKTSTTVDLKITSPTAEDTATYFCARDTNSDSHYGWEAFNIWGPGTLVTVSS
VL: AVVLTQTPASVEAAVGGTVSINCQASEDIESYLAWYQQKPGQRPKLLIYRASTLASGVSSRFKGSGSGTEYTLTISGVECADAATYYCQEGYSIHVDNVFGGGTEVVVK
For the molecule B1, the decrease of binding relative to 0N4 R tau in assay [1] and in assay [2] was 50% throughout.
